Test results: publication PMC4430316, “Differential Phosphorylation of RNA Polymerase III and the Initiation Factor TFIIIB in Saccharomyces cerevisiae” (PLoS ONE, 2015)

Target: T1, Rpc160-HA (S. cerevisiae, UniProt P04051 1-1460)
T1 construct: Rpc160 (C160), largest subunit of RNA polymerase III, S. cerevisiae; Precipitated from cell extract, so other pol III subunits are probably present with it; also called C160-3HA; largest subunit of pol III; not shown: 3HA, C-terminal, kept
T1 sequence (looked up): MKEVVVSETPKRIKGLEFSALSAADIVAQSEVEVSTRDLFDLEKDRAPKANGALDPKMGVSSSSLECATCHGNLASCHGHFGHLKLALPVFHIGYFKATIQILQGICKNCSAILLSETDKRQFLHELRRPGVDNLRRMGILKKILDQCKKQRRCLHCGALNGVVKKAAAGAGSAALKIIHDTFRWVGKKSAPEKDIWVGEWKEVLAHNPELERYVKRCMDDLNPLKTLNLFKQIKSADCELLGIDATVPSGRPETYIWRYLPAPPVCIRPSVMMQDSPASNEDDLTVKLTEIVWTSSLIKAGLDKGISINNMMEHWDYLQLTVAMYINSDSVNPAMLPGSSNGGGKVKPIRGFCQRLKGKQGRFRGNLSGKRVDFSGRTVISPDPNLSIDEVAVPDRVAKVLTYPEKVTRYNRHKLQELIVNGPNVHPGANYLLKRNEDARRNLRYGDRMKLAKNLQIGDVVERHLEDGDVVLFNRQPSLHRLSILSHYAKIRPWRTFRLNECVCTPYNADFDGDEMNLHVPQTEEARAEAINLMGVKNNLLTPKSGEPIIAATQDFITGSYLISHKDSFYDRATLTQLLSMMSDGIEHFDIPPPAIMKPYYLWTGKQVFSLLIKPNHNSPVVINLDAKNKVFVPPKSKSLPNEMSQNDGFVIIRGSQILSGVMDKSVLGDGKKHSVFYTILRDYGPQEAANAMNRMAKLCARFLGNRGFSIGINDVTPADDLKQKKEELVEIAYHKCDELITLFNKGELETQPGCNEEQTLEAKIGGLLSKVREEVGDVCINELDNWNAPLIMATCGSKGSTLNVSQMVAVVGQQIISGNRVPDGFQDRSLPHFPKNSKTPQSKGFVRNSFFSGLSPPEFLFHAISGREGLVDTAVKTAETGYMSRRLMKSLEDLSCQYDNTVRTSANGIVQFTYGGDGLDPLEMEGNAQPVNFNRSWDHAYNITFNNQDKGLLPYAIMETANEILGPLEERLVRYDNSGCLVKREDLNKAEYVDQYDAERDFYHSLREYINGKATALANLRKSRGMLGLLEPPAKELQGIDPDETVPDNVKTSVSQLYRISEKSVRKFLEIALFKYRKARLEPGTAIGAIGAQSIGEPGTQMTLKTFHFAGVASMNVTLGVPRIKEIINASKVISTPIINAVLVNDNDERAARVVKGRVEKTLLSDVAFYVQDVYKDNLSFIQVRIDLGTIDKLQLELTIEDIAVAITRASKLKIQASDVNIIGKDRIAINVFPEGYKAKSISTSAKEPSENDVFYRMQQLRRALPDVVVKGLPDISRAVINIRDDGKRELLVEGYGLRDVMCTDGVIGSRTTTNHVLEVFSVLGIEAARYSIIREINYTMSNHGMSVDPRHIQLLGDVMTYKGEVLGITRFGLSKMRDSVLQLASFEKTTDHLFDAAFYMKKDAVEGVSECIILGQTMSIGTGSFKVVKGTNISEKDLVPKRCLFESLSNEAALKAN
Experiment: co-IP; Rpc160-HA precipitated with HA monoclonal antibody 12CA5 and protein G-Sepharose from yeast extracts (glass bead breakage, KBC100 buffer with protease and phosphatase inhibitors); Maf1 detected with polyclonal Maf1 antibody, Maf1myc with anti-myc; cells treated with rapamycin or untreated; also in BDP1 wild-type and BDP1-4SA strains (S4 Fig)
Conditions: partners not purified

B1: Maf1 (natural protein, S. cerevisiae, UniProt P41910 1-395, looked up)
chain: MKFIDELDIERVNQTLNFETNDCKIVGSCDIFTTKAVASDRKLYKTIDQHLDTILQENENYNATLQQQLAAPETNQSPCSSPFYSNRRDSNSFWEQKRRISFSEYNSNNNTNNSNGNSSNNNNYSGPNGSSPATFPKSAKLNDQNLKELVSNYDSGSMSSSSLDSSSKNDERIRRRSSSSISSFKSGKSSNNNYSSGTATNNVNKRRKSSINERPSNLSLGPFGPINEPSSRKIFAYLIAILNASYPDHDFSSVEPTDFVKTSLKTFISKFENTLYSLGRQPEEWVWEVINSHMTLSDCVLFQYSPSNSFLEDEPGYLWNLIGFLYNRKRKRVAYLYLICSRLNSSTGEVEDALAKKPQGKLIIDDGSNEYEGEYDFTYDENVIDDKSDQEESLQ
notes: Maf1, repressor of RNA polymerase III transcription, S. cerevisiae; untagged, detected with a polyclonal Maf1 antibody; Phosphorylation state differs between control and rapamycin-treated cells; also called untagged Maf1; source: endogenous, yeast cell extract
For B1, the “fold increase of Maf1 co-immunoprecipitated with Rpc160 in rapamycin-treated against untreated cells” value was about 13 fold.

B2: Maf1myc (natural protein, S. cerevisiae, UniProt P41910 1-395, looked up)
chain: B1 chain
notes: Maf1, repressor of RNA polymerase III transcription, S. cerevisiae; also called Maf1-9myc; C-terminal myc-tagged Maf1
With B2 the “fold increase of Maf1myc co-immunoprecipitated with Rpc160 in rapamycin-treated against untreated cells” value was under 2 fold.
